The assay has as its target T1, Recombinant human CD123 SP2 ECD protein (human, UniProt P26951 101-303).
T1 construct: also called rhCD123 SP2; CD123 ECD SP2
T1 sequence: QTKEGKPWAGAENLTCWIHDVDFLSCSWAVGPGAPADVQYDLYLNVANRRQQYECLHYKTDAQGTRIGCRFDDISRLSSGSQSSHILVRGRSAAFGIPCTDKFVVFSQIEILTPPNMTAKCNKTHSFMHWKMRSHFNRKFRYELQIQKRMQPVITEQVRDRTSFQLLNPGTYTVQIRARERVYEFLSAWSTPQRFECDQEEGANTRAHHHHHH
Kind of assay: SPR Biacore 3000, captured mAb.

B1: I3RB18 (antibody, IgG1, V domains shown)
VH: EVQLVQSGAEVKKPGESLKISCKGSGYSFTSYWISWVRQMPGKGLEWMGIIDPSDSDTRYSPSFQGQVTISADKSISTAYLQWSSLKASDTAMYYCARGDGSTDLDYWGQGTLVTVSS
VL: EIVLTQSPGTLSLSPGERATLSCRASQSVSSSYLAWYQQKPGQAPRLLIYGASSRATGIPDRFSGSGSGTDFTLTISRLEPEDFAVYYCQQDYGFPWTFGQGTKVEIK
notes: IgG1; also called 13RB18; mAb I3RB18
Take B1: the dissociation constant (Kd) amounted to 300 pM.

The record behind these values is patent US20160068605A1 (Janssen / Centocor, published 2016).
